Assay results as given in article PMC3645317.

Biological target: gHΔTM-Fc/gL (Kaposi's sarcoma-associated herpesvirus (KSHV))

Sequence of solEphA2-Fc (P29317 25-534): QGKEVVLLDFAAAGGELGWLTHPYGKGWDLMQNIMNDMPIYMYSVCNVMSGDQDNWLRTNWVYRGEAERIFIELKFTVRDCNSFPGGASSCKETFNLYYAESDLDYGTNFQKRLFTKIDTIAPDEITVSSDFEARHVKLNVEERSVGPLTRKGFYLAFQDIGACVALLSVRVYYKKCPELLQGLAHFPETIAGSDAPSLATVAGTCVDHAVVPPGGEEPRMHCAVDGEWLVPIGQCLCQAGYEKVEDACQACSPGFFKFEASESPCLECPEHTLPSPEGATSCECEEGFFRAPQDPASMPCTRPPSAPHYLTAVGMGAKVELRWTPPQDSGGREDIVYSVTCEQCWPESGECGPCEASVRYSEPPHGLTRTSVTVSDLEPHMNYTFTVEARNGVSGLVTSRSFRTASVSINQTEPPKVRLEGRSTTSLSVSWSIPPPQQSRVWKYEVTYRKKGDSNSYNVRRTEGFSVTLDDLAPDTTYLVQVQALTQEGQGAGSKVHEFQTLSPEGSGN

solEphA2-Fc (from UniProt P29317-1 25-534) (Fc fusion)
inhibition of KSHV infection of 293T cells by solEphA2-Fc at 2 µg/ml: 80%
